For assay [1], the target named is human polyclonal IgG (Gammanorm) (human). Put plainly: column Qb10 after six 4 h cycles in 0.5 M NaOH, ligand on agarose beads (ligand content 9.7 mg/ml).
Assay [2] has the same target. Put plainly: column Qb10 retention after six 4 h cycles in 0.5 M NaOH, ratio to Zvar4 reference.
For assay [3] the target is unchanged. Put plainly: column Qb10 after six 4 h cycles in 0.5 M NaOH relative to initial, ligand on agarose beads (ligand content 9.7 mg/ml).
Assay [4] has the same target. In words: column dynamic binding capacity at 10% breakthrough, ligand on agarose beads (ligand content 9.7 mg/ml), Gammanorm 2 mg/ml, 6 min residence time.
Assay [5] has the same target. In words: SPR (Biacore), remaining IgG binding capacity after 96-100 cycles in 0.5 M NaOH, ratio to Zvar1 reference.
Assay [6] shares this target. Put plainly: SPR (Biacore), ligand on CM5 chip, 1 mg/ml human polyclonal IgG; remaining IgG binding signal after 96-100 10-min cycles in 0.5 M NaOH.
Assay [7] shares this target. Put plainly: column Qb10 after six 4 h cycles in 0.5 M NaOH, ligand on agarose beads (ligand content 10.8 mg/ml).
For assay [8] the target is unchanged. In words: column Qb10 after six 4 h cycles in 0.5 M NaOH relative to initial, ligand on agarose beads (ligand content 10.8 mg/ml).
For assay [9] the target is unchanged. Put plainly: column dynamic binding capacity at 10% breakthrough, ligand on agarose beads (ligand content 10.8 mg/ml), Gammanorm 2 mg/ml, 6 min residence time.

With “Zvar(N11K, H18K, S33K, D37E, A42R, N43A, L44I, K50R, L51Y)4 (designed binder)”, in assay [1], the Remaining IgG capacity after six 4 h cycles came to 52 mg/mL. The Capacity retention relative to ref. after 4 h cycles in assay [2] turned out to be 1.42. In [3], the Remaining IgG capacity after six 4 h cycles (%) is 92%. The substance further returned an Initial IgG capacity Qb10 in assay [4] of 56.3 mg/mL.

In the case of “Zvar(H18K, S33K, D37E, A42R, N43A, L44I, K50R, L51Y)1 (designed binder)”, in assay [5], the Capacity relative to reference was 1.04. The Capacity after 96-100 cycles in assay [6] was found to be 48%.

The substance “Zvar(Q9A, N11K, H18K, D37E, A42R)4 (designed binder)” had a Remaining IgG capacity after six 4 h cycles in [7] of 52.5 mg/mL. The Capacity retention relative to ref. after 4 h cycles in [2] came out at 1.21. In assay [8], this substance registered a Remaining IgG capacity after six 4 h cycles (%) of 92%. In assay [9], this substance had an Initial IgG capacity Qb10 of 56.9 mg/mL.

Source of the values: patent US20180327512A1.
